Patent US20220315648A1 (AC IMMUNE, published 2022)
No end group written: not given here. *: point of attachment. Biotin = O=C1N[C@H]2[C@H](CS[C@H]2CCCCC(=O)*)N1

B1: ACI-7069-633B12-Ab1 (antibody, IgG2b, V domains shown)
VH: EVQLQQSGPELVKPGASVKISCKTSGFTFTEYSMHWVKQSHGKSLEWIGGINPNNGGTSYNQKFKGKATLTVDKSSSTAYMELRSLTSEDSAVYYCARESWGQGTTLTVSS
VL: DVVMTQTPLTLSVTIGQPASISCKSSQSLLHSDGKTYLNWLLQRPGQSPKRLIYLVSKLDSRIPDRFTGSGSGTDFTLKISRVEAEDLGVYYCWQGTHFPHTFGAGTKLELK
notes: also called 633B12C8
B2: ACI-7069-631B2-Ab1 (antibody, IgG1, V domains shown)
VH: EVQLQQSGPELVKPGASVKISCKTSGYTFTEYSIHWVKQSHGESLEWIGGINPDNGGTRYNQKFKGKATLTVDKSSSTAYMDLRSLTSEDSAVYYCARESWGQGTTLTVSS
VL: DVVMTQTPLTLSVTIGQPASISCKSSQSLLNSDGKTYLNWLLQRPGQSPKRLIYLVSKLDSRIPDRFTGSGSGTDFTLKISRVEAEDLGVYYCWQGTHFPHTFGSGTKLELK
notes: also called 631B2A2
B3: ACI-7071-809D9-Ab2 (antibody, IgG2b, V domains shown)
VH: QVQLQQSGAELVRPGVSVKISCKGSGYKFTDYSMHWVKQSHTKSLEWIGVISTYYGDTTYNQKFKGKATITVDKSSSTAYMELARLTSEDSAIYYCATYGNFPASFSYWGQGTLVTVSA
VL: DIVMTQAAPSIPVTPGESVSISCRSSKSLLHSNGNTYLYWFLQRPGQSPQLLIYRMSNLASGVPDRFSGSGSGTAFTLRISRVEAEDVGVYYCMQHLEYPFTFGSGTKLEIK
notes: also called 809D9C2
B4: ACI-7071-809F12-Ab1 (antibody, IgG2b, V domains shown)
VH: QVQLKESGPGLVAPSQSLSITCTVSGFSLNRNGVQWVRQPPGKGLEWLGVIWPGGSTNCNSALMSRLSISKDNSKSQVFLKMNSLHTDDTGIYYCARVGGNYVWDYNNYAWGQGTLVTVSA
VL: DVLMTQTPLSLPVSLGDQASISCRSSQNIVHSIGNTYLEWYLQKPGQSPKLLIYKVSNRFSGVPDRFSGSGSGTDFTLKISRVEAEDLGVYYCFQGSHVPYTFGGGTKLEIR
notes: also called 809F12D8
B5: ACI-7069-634H10-Ab2 (antibody, IgG2b, V domains shown)
VH: EVQLQQSGAELVKPGASVRLSCTASGFNIKDTYMHWVKQRPEQGLEWIGRIDPANSNTKFDPKFQGKATITSDTSSNTAYLQLSSLTSEDTAVYYCARFYGGSHWYFDVWGAGTTVTVSS
VL: DIKMTQSPSSMYASLGERVTITCKASQDIKSYLSWYQHKPWKSPKALIYYATSLADGVPSRFSGSGSGQDYSLTISSLESDDTATYYCLQQGESPYTFGGGTKLEIK
notes: also called 634H10H7
B6: ACI-7069-636E5-Ab1 (antibody, IgG2b, V domains shown)
VH: EVHLVESGGDLVMPGGSLKLSCAASGFTFSNYGMSWVRQTPDKRLEWVATISSGGKYINYLDSLKGRFTISRDNAKNTLYLQMSSLKSEDTAMYYCAKDYGSGWAWFAYWGQGTLVTVSA
VL: QLVLTQSSSASFSLGASAKLTCTLSSQHSTYTIEWYQQQPLKPPKYVMELKKDGSHSTGDGIPDRFSGSSSGADRYLSISNIQPEDEAIYICGVGDTIKEQFVYVFGGGTKVTVL
notes: also called 636E5B8
B7: ACI-7069-641H1-Ab2 (antibody, IgG2b, V domains shown)
VH: QVQLKESGPGLVAPSQSLSITCTVSGFSLTNYGVHWVRQPPGKGLEWLGLMWAGGSTNYNSALMSRLSISKDNSKSQVFLKMNSLQTDDTAMYYCVIYRTGFAYWGQGTLVTVSA
VL: DVLMTQTPLSLPVSLGDQASISCRSSQSIVHTIGNTYLEWYLQKPGQSPKLLIYKVSNRFSGVPDRFSGSGSGTDFTLKISRVEAEDLGVYYCFQGSHVPFTFGSGTKLEIK
notes: also called 641H1E7
B8: ACI-7069-646B7-Ab1 (antibody, IgG2b, V domains shown)
VH: QVQLKESGPGLVAPSQSLSITCTVSGFSLTNFGVHWVRQPPGKGLEWLGIMWAGGSTNYNSALMSRLSISKDNSKSQVFLKMNSLQTDDTAMYYCVIYKTGFAYWGQGTLVTVSA
VL: DVLMTQTPLSLPVSLGDQASISCRSSQSIVHAIGNTYLEWYLQKPGQSPKLLIYKVSNRFSGVPDRFSGSGSGTDFTLKISRVEAEDLGVYYCFQGSHVPFTFGSGTKLEIK
notes: also called 646B7F7
B9: ACI-7069-642A10-Ab1 (antibody, IgG1, V domains shown)
VH: QVQLQQPGAELVKPGASVKLSCKASGYTFTKYWMHWVKQRPGQGLEWIGEINPSNGRTNYNEKFKSKATLTVDKSSSTAYMQLSSLTSEDSAVYYCARYMDYWGQGTSVTVSS
VL: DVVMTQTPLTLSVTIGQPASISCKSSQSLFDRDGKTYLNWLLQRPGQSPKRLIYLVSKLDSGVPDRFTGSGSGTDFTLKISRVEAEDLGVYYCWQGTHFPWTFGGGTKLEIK
notes: also called 642A10B11
B10: ACI-7069-642D12-Ab1 (antibody, IgG2b, V domains shown)
VH: EVQLQQSGAELVKPGASVRLSCTASGFNIKDPYMHWVRQRPKQGLEWIGRIDPADGNTKYDPKFQGKATLTADTSSNVAYLHLSSLTSEDTAVYYCARFYGSSHWYFDVWGAGTTVTVSS
VL: DIKMTQSPSSMYASLGERVTITCKASQDIKRYLSWYQQKPWKSPKILIYYATSLADGVPSRFSGTGSGQDYSLTISSLESDDVATYYCLQQGESPYTFGGGTKLEIK
notes: also called 642D12B4
B11: ACI-7071-712A6-Ab1 (antibody, IgG2c, V domains shown)
VH: QVQLQQSGAELVKPGTSVKLSCKASAYTFTEYTIHWIKQKSGQGLEWIGWFHPENDNIKYNENFKDKATLTADRSSSTVYMELSRLTSEDSAVYFCAGTSGYGDYWGQGTTLTVSS
VL: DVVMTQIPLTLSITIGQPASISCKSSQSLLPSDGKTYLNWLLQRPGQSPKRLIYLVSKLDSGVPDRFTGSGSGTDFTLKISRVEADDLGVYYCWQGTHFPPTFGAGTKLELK
notes: Mouse hybridoma antibody, IgG2c; also called 712A6B10

What was measured:
[1] = target: T1, human full length TDP-43 (FL TDP-43), recombinant, soluble (human, UniProt Q13148 1-414); experiment: Luminex, beads conjugated to FL TDP-43, antibody serial dilution
T1 construct: Antigen of Luminex, ELISA and SPR (soluble form); also called TDP-43 protein; Soluble TDP-43
Description: Mice were euthanized and fusion with myeloma cells was performed using splenocytes from four individual mice. Screening for antibodies from the successfully fused hybridoma cell lines were performed as follows. Diluted (1:32) cell culture supernatants were analyzed using Luminex bead-based multiplex assay (Luminex, The Netherlands). Luminex beads were conjugated to FL TDP-43 and with capturing IgGs with anti-mouse IgG-Fc antibodies specific for the IgG1, IgG2a, IgG2b, IgG2c, and IgG3 subclasses (Jackson Immunoresearch, USA). Binding to beads conjugated to FL TDP-43 identified 386 hits derived from mice immunized with the FL TDP-43 liposomal vaccine.
Luminex assays with serial dilution of antibodies were performed as described before to determine half maximal effective concentration (EC50) of binding of antibodies to FL TDP-43. In summary, all tested antibodies bind to full length TDP-43 with high affinity.

TP-23 = target: T2, TP-23 (human); experiment: indirect ELISA on TDP-43 peptides, antibody at 1 µg/ml
T2 peptide: Biotin-TEDMTEDELREFFSQ

TDP-6 = target: T3, TDP-6 (human); experiment: as above
T3 construct: One of the 40-66 aa linear peptides; also called TDP-43 peptide 140-200
T3 peptide: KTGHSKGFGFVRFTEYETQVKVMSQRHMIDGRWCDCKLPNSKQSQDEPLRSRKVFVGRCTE

TP-40 = target: T4, TP-40 (human); experiment: as above
T4 peptide: Biotin-NNQNQGNMQREPNQA

TP-48 = target: T5, TP-48 (human); experiment: as above
T5 construct: 23 residues
T5 peptide: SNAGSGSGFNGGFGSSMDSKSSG

TP-21 = target: T6, TP-21 (human); experiment: as above
T6 peptide: Biotin-KQSQDEPLRSRKVFV

T1 sequence (Q13148 whole entry): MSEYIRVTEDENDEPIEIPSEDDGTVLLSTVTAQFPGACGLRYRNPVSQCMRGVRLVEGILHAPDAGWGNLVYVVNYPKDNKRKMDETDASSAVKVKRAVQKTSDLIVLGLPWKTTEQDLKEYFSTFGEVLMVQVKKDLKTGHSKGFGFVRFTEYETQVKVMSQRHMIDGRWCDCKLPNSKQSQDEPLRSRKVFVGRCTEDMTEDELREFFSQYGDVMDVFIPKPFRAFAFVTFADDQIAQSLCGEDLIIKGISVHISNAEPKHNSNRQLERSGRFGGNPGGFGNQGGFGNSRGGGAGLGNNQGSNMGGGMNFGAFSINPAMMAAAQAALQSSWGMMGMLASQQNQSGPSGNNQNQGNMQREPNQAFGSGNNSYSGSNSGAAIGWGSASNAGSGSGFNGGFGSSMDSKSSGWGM

Row | Binder | EC50 [1] [µM] | binding result (TP-23) | also measured
1 | B1 | < 10 |  | 
2 | B2 | < 10 |  | 
3 | B3 | < 10 | binds | 
4 | B4 | < 10 | binds | 
5 | B5 | < 10 |  | binding result (TDP-6): binds
6 | B6 | < 10 |  | binding result (TP-40): binds
7 | B7 | < 10 | binds | 
8 | B8 | < 10 | binds | 
9 | B9 |  |  | binding result (TP-48): binds
10 | B10 | < 10 |  | binding result (TP-21): binds
11 | B11 | 180 |  | 
